Experimental data from US20180320200A1.

Target: cell surface of 293 AAV cells (human)
Assay: cell binding on ice for 1 h at 200000 TU/cell; unbound particles recovered from the medium and titrated on TG1 E. coli by colony counting; relative to control

Substance | binding efficiency (percentage of vectors bound to the cell surface)
M13.PAAV vector (non-targeted phagemid/AAV particle lacking RGD4C) (from UniProt P69168 19-424) | 7.1%
RGD.PAAV vector (phagemid/AAV particle displaying the RGD4C targeting peptide on the pIII minor coat protein) | 58.2%
